Reference: patent publication US10428140B2, “Anti-EphA4 antibody” (EISAI R&D MANAGEMENT CO., LTD., priority 2015, dated 2019)

Assays:
rat hippocampal neurons = assay: Ligand-induced growth cone collapse in hippocampal neurons; assay type: cell-based; details: antibody A 0.1, 0.3, 1 μM; KYL peptide 10, 30, 100 μM
Protocol: Rat hippocampal neurons were prepared as described in Example 10 above. The cells were inoculated to a 96-well plate (Greiner Bio-One) coated with poly-L-lysine containing culture solution.
The growth cone collapse assay using the hippocampal neurons was conducted according to the following steps. The rat hippocampal neurons of culture day 2 inoculated to the 96-well dish (Greiner Bio-One) were treated with PBS (Wako Pure Chemical Industries), antibody A (0.1, 0.3, and 1 μM), or an EphA4 inhibitor KYL peptide (KYLPYWPVLSSL, 10, 30, and 100 μM, its synthesis was outsourced to Toray Research Center) for 15 minutes and then treated with goat anti-human Fcγ fragment IgG1 antibody (Jackson ImmunoResearch Laboratories)-preclustered mouse Ephrin A1-Fc chimera (R&D Systems, final concentration: 1 μg/mL) (ratio: 1:5) for 30 minutes. Then, the culture solution was removed, and 2% PFA (Wako Pure Chemical Industries)/4% sucrose (Wako Pure Chemical Industries)/PBS was added, and left standing for 20 minutes to fix the cells. The solution was removed, and the cells were washed with PBS three times, followed by the addition of 0.25% Triton X-100 (Wako Pure Chemical Industries)/PBS for cell penetration treatment for 15 minutes. […] Neurons forming growth cone were counted in 30 fields of view per sample to calculate the proportion of the number of neurons causing growth cone collapse.

[1] = test system: human iPS cell-derived motor neuron / variant human SOD1 (G93A)-expressing astrocyte coculture; assay: Motor neuron protection in in vitro ALS model derived from human iPS cells; assay type: cell-based; details: antibody A 10, 30, 100 nM; EphA4-Fc 3, 10, 30 nM; KYL peptide 1, 3, 10 μM; 2 days
Protocol: Human iPS cells were maintained and cultured according to the following steps. Human iPS cells (201B7) cryopreserved in liquid nitrogen using Stem cell banker (TAKARA) were taken out of the gas phase of liquid nitrogen and immediately suspended and thawed in 5 mL of a human iPS cell culture medium (Essential 8, Thermo Fisher Scientific) prewarmed to 37° C. The cell suspension was recovered into a 15-mL conical tube (Falcon) and centrifuged (1000 rpm, 5 min, room temperature), followed by the removal of the supernatant. The cells were suspended in a fresh medium and then disseminated to a ϕ60 mm cell culture dish (Falcon BD) coated with 0.5 μg/cm^2 Human recombinant vitronectin (Invitrogen) in advance. 10 μM Y-27632 (Wako Pure Chemical Industries) was added thereto, and the cells were maintained and cultured in a CO2 incubator (5% CO2, 37° C.). Medium replacement was performed every day, and the cells were subjected to the experiment when reaching confluency.
The culture medium of the maintained and cultured human iPS cells was aspirated, and the cells were washed with 2 mL of PBS (Wako Pure Chemical Industries). […] Then, the number of cells was counted using a counting chamber. […]

B1: antibody A: mouse anti-EphA4 monoclonal antibody, IgG1/κ; heavy chain variable region SEQ ID NO: 11, light chain variable region SEQ ID NO: 13 (antibody, listed as Mus musculus, V domains shown)
VH: QIQLVQSGPELKKPGETVKISCKASGYTFTDYSMHWVKQAPGKGLKWMGWINTETGEPTYADDFKGRFAFSLETSASTAYLQINNLKNEDTATYFCARIPLYYYGSRYWYFDVWGAGTTVTVSS
VL: DIQMTQSPASLSVSVGETVTITCRASENIYRNLAWYQQKQGKSPQLLVYAATNLADGVPSRFSGSGSGTQYSLKINSLQSEDFGSYYCQHFWGTPWTFGGGTKLEIK
suppression of growth cone collapse induced by mouse Ephrin A1 (in words) (rat hippocampal neurons): suppressed, in a concentration-dependent manner
suppression of motor neuron death / motor neuron protective effect (in words) [1]: suppressed, in a concentration-dependent manner
